# Substitutions are numbered along the chain they refer to.
# T1: Sfc1 186-283 (winged helix, lacks WHI) (Schizosaccharomyces pombe, UniProt O14229 186-283)
# T1 sequence: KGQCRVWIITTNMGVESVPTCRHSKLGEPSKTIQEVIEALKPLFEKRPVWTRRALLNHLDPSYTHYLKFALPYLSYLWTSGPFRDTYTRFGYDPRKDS
# T2: Sfc1-DBD (C-terminal DNA-binding domain of Sfc1, residues 186-396), recombinant (Schizosaccharomyces pombe, UniProt O14229 186-396)
# T2 construct: Sfc1, Schizosaccharomyces pombe, residues 186-396 (winged-helix domain 186-283 and WHI domain 284-396); The crystal structure (4BJI) used selenomethionine-substituted protein; Purification details are in the Supplemental Methods; source: E. coli, purified (Ni-NTA, TEV, ion exchange, no gel filtration); not shown: His-tag, N-terminal, cleaved
# T2 sequence (looked up): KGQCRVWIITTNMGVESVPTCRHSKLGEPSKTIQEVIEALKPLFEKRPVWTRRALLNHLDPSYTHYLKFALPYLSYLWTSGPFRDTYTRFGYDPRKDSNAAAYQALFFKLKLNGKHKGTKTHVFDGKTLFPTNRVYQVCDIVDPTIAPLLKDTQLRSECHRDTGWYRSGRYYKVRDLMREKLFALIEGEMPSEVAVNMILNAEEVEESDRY
# T3: Sfc1-DBD (Schizosaccharomyces pombe, UniProt O14229 186-396)
# T3 sequence: T2 sequence (looked up)
# T4: Sfc7 (S. pombe TFIIIC τA subunit), full length (Schizosaccharomyces pombe, UniProt A6X980 1-120)
# T4 construct: Sfc7, Schizosaccharomyces pombe, full length (Mr = 13.3 kDa); cloned into pCDF-MCN; PDB 4BJJ holds residues 1-101; also called orthologue of S. cerevisiae τ55 (Tfc7) and human TFIIIC35; source: E. coli BL21 (DE3) RIPL, co-expressed with Sfc1, purified (Ni-NTA, TEV, second Ni-NTA, Mono Q, Superdex S200)
# T4 sequence (looked up): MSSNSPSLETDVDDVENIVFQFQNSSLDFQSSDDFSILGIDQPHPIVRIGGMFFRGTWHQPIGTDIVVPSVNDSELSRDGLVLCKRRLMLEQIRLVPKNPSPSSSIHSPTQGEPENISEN
# T5: Sfc1 full length;Sfc7 full length (Schizosaccharomyces …, UniProt O14229;A6X980 1-456;1-120, |)
# T5 sequence 1: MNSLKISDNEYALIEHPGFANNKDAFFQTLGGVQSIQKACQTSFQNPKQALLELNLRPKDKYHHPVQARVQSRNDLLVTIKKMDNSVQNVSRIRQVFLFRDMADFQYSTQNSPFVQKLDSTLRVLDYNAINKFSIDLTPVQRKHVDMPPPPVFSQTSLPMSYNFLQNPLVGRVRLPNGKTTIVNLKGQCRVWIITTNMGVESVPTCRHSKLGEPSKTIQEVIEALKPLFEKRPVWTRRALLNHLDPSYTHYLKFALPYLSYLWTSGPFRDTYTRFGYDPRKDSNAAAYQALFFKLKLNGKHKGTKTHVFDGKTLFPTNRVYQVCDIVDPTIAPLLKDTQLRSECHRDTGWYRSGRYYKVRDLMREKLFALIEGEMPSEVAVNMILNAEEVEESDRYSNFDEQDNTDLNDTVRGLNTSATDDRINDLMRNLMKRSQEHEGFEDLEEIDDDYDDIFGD
# T5 sequence 2: T4 sequence (looked up)
# T6: Sfc1 186-456 (Schizosaccharomyces pombe, UniProt O14229 186-456)
# T6 sequence: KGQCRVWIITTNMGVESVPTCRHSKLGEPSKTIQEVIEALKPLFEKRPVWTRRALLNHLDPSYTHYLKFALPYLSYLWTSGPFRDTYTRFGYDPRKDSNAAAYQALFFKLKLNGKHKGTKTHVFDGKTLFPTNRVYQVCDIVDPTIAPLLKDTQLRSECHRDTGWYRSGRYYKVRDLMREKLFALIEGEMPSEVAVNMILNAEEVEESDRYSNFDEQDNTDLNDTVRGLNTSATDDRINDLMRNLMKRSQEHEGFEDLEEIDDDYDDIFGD
# T7: Sfc1 1-396;Sfc7 full length (Schizosaccharomyces …, UniProt O14229;A6X980 1-396;1-120, |)
# T7 sequence 1: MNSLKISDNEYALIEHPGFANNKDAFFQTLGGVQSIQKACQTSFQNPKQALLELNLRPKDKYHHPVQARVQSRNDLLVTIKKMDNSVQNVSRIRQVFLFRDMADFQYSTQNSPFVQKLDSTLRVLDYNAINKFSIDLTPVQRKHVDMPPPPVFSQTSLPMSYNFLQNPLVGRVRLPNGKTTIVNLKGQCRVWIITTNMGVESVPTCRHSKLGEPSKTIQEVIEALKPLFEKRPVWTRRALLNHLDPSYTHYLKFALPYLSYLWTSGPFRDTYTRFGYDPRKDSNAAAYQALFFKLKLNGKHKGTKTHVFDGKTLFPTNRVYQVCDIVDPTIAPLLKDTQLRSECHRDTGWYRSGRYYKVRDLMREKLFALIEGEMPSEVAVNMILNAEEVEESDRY
# T7 sequence 2: T4 sequence (looked up)
# T8: Sfc1 111-456 (Schizosaccharomyces pombe, UniProt O14229 111-456)
# T8 sequence: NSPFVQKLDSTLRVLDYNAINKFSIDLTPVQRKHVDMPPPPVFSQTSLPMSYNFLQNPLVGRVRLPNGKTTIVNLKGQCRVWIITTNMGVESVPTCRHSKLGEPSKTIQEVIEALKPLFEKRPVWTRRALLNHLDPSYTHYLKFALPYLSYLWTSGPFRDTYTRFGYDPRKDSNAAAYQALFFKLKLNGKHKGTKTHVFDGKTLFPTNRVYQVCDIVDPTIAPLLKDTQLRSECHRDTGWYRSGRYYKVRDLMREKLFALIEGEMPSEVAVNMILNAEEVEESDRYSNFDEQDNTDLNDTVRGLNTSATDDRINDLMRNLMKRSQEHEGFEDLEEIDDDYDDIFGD
# T9: Sfc1-DBD R269A (Schizosaccharomyces pombe, UniProt O14229 186-396, R269A)
# T9 sequence: T2 sequence (looked up) with R84A
# T10: Sfc1-DBD R269A/K294A (Schizosaccharomyces pombe, UniProt O14229 186-396, R269A;K294A)
# T10 sequence: T2 sequence (looked up) with R84A, K109A
# T11: Sfc1-DBD K294A (Schizosaccharomyces pombe, UniProt O14229 186-396, K294A)
# T11 sequence: T2 sequence (looked up) with K109A
# T12: Sfc1-DBD R237A (Schizosaccharomyces pombe, UniProt O14229 186-396, R237A)
# T12 sequence: T2 sequence (looked up) with R52A
# B1: Sfc1_(435-456) synthetic peptide (22mer acidic Sfc1 tail peptide) (peptide)
# peptide: QEHEGFEDLEEIDDDYDDIFGD
# notes: Sfc1, Schizosaccharomyces pombe, the 22 C-terminal residues (435-456), pI 3.5; The methods call it Sfc1_(434-456); also called Sfc1_(434-456) peptide (methods); acidic tail peptide; source: synthetic peptide
# B2: B-box dsDNA (25 bp) (dsDNA)
# DNA 1: CGACCCGGGTTCGATTCCCGGCCAA
# DNA 2: TTGGCCGGGAATCGAACCCGGGTCG
# B3: Sfc1-NT, smaller protease-resistant Sfc1 fragment (residues 1-107) (domain or fragment, Schizosaccharomyces pombe, UniProt O14229 1-107, looked up)
# chain: MNSLKISDNEYALIEHPGFANNKDAFFQTLGGVQSIQKACQTSFQNPKQALLELNLRPKDKYHHPVQARVQSRNDLLVTIKKMDNSVQNVSRIRQVFLFRDMADFQY
# notes: Sfc1, Schizosaccharomyces pombe, residues 1-107, assigned by electrospray mass spectrometry and peptide mass fingerprinting; also called smaller Sfc1 fragment; source: limited proteolysis of the purified Sfc1/Sfc7 heterodimer made in E. coli; not shown: His-tag, N-terminal, cleaved
# B4: A-box dsDNA (25 bp) (dsDNA)
# DNA 1: CGAAGTGGCCGAGTGGTCTATGGCG
# DNA 2: CGCCATAGACCACTCGGCCACTTCG
# Tests used:
# [1] = molecular target: T1, Sfc1 186-283 (winged helix, lacks WHI); assay: filter binding; details: Buffer D: 20 mM Tris-HCl pH 7.5, 200 mM KCl, 2 mM MgCl2, 10 mM DTT, 25 C (EMSA and nitrocellulose filter binding)
# [2] = molecular target: T2, Sfc1-DBD (C-terminal DNA-binding domain …); assay: ITC; 25°C, VP-ITC; 50 mM HEPES pH 7.5, 150 mM NaCl, 2 mM β-mercaptoethanol; 10 µl injections of 200 µM peptide into 2 ml of 10 µM protein; data not shown; details: both partners purified
# [3] = molecular target: T3, Sfc1-DBD; assay: unspecified (data not shown); similar affinity to A-box; Buffer D: 20 mM Tris-HCl pH 7.5, 200 mM KCl, 2 mM MgCl2, 10 mM DTT, 25 C (EMSA and nitrocellulose filter binding); details: protein: recombinant; tags: N-terminal His-tag, TEV-cleaved; label: 32P; blunt
# [4] = molecular target: T4, Sfc7 (S. pombe TFIIIC τA subunit), full …; assay: ion-exchange chromatography; fragments from limited proteolysis of the purified Sfc1/Sfc7 heterodimer, separated by ion-exchange chromatography; details: both partners purified
# [5] = molecular target: T5, Sfc1 full length;Sfc7 full length; assay: filter binding; Buffer D: 20 mM Tris-HCl pH 7.5, 200 mM KCl, 2 mM MgCl2, 10 mM DTT, 25 C (EMSA and nitrocellulose filter binding); details: protein: recombinant;recombinant; tags: N-terminal His-tag, TEV-cleaved;; copies: 1;1; label: 32P; blunt
# [6] = molecular target: T6, Sfc1 186-456; assay: as above; details: protein: recombinant; tags: N-terminal His-tag, TEV-cleaved; label: 32P; blunt
# [7] = molecular target: T7, Sfc1 1-396;Sfc7 full length; assay: as above; details: protein: recombinant;recombinant; tags: N-terminal His-tag, TEV-cleaved;; copies: 1;1; label: 32P; blunt
# [8] = molecular target: T8, Sfc1 111-456; assay: as above; details: protein: recombinant; tags: N-terminal His-tag, TEV-cleaved; label: 32P; blunt
# [9] = molecular target: T1, Sfc1 186-283 (winged helix, lacks WHI); assay: as above; details: protein: recombinant; tags: N-terminal His-tag, TEV-cleaved; label: 32P; blunt
# [10] = molecular target: T9, Sfc1-DBD R269A; assay: as above; details: protein: recombinant; tags: N-terminal His-tag, TEV-cleaved; label: 32P; blunt
# [11] = molecular target: T10, Sfc1-DBD R269A/K294A; assay: as above; details: protein: recombinant; tags: N-terminal His-tag, TEV-cleaved; label: 32P; blunt
# [12] = molecular target: T11, Sfc1-DBD K294A; assay: as above; details: protein: recombinant; tags: N-terminal His-tag, TEV-cleaved; label: 32P; blunt
# [13] = molecular target: T12, Sfc1-DBD R237A; assay: as above; details: protein: recombinant; tags: N-terminal His-tag, TEV-cleaved; label: 32P; blunt
molecule,measurement,setting,value
A-box non-coding ssDNA (nc-ss),binding signal (fold lower affinity than Sfc1-DBD),[1],10
B1,Kd,[2],3000 ± 800 nM
B2,binding result,[3],binds
B3,binding result,[4],binds
B4,binding result,[5],no binding
same,binding result,[6],no binding
same,binding result,[7],binds
same,binding result,[8],no binding
same,binding signal,[9],~10 fold lower affinity than Sfc1-DBD
same,binding signal,[10],> 2 fold lower affinity than Sfc1-DBD
same,binding signal,[11],> 2 fold lower affinity than Sfc1-DBD
same,binding signal,[12],> 2 fold lower affinity than Sfc1-DBD
same,binding signal,[13],> 2 fold lower affinity than Sfc1-DBD

# — paper PMC3799434, “RNA polymerase III-specific general transcription factor IIIC contains a heterodimer resembling TFIIF Rap30/Rap74” (Nucleic Acids Research, 2013)
